Data as given in the DeepSol protein solubility set.

Test: soluble on expression in E. coli; label from the status in PepcDB or PDB records

| Sequence | soluble on expression in E. coli |
| --- | --- |
| MSLKNELEFAKKLIDFIYDSPSPFHSVDNIKNTLIENGFAEIKEENKWELNKNGKYFVKRNDSALIAFTVGSGFVAKKGFKIIGGHTDSPTFRIKPNPEMVSENSYIKLNTEVYGGPILSTWFDRPLSIAGRVTVRGKSALFPETKLLNIKRPILVIPNLAIHMNRDVNSGFKINPQVDTLPIIGIINDKFEKENYLMKIIASELGEDIENIIDFDLFLYEYDKGCIMGINNEFISSSRLDDMEMVHAGLNALVNAKCSEATNVLACFDNEEIGSATKQGADSQFLSDILERIVLSFGGDREDFFRALHNSFMISSDSAHAVHPNKGEKADPITRPHINEGPVIKISAAQKYTSDSNSIAVYEEVCRLSGVPYQKFVNRSDERGGSTIGPITATHTAIRTVDIGTPLLAMHSIRELCGTLDHMYVEKSFEEFYNEGHHHHHH | soluble |
| MGSDKIHHHHHHMLKITFLGTNGWFDSNTGNTPSVLIEHRNYYIILDAGNGISKLRNCISSDKPVYLFLSHFHLDHISGLHTLPLNKFSKGLYIIVPKGGTKLINQFVNVPFTVPIKKLPFKTEIIEACNKLNFLPFKATFLPLVHSSYVLGIRLEIDSKTISYCTDTSYCFNAITLAKNADLLISECSMKPLGTDDASVHLNPELASKIAKEAGAKKLMLIHFDAAKYLTLDDRKKAELAAKTIFNNSYASYDDLELQV | not soluble |
| MKRIAFVGSVGAGKTTLFNALQGNYTLARKTLAVEFNDKGDIDTPGEYFSHPRWYHALITTLQDVDMLIYVHGANDPESRLPAGLLDIGVSKRQIAVISKTDMPDADVAATRKLLLETGFEEPIFELNSHDPQSVQQLVDYLASLTKQEEAGEKTHHSELEHHHHHH | soluble |
| MTEQQKFKVLADQIKISNQLDAEILNSGELTRIDVSNKNRTWEFHITLPQFLAHEDYLLFINAIEQEFKDIANVTCRFTVTNGTNQDEHAIKYFGHCIDQTALSPKVKGQLKQKKLIMSGKVLKVMVSNDIERNHFDKACNGSLIKAFRNCGFDI | not soluble |
| MDGKLLWSFNSGDAVRSVAISRDGDYVATGSANNYVYLLDSEGKTLWGKKTGSLINSVTMTPNAYYVAAGGSNYNVYLFDRKGEFSWMHNPGYWVSSVSLSSNGSHLAAGSFDDRIYLFNLTGAKLWDYQVKDDVYAVEIAPDSSFIAAGSWDDSIYALNMSGKELEHHHHHH | not soluble |
| MAHHHHHHMVFFFPSFFFHNHDRELSCGKVSKAFIYIKKIHKMRRVSSLKEYNSLKEEAGNGLGLVVHFSASWCEPCKNVGSMLEGYLSQYNQKVLFAEVDADLVTNVCEAENVECVPFIVFFRTSSRERAQERVADVVGGKLDHLEMNLVSLYGNGHDTRESFPDLNEYLKYLTSRKGVVAFITGTPSRPRCGFTGRLVEIFYELGIKFIYYDVWASDEVCEGLKKYSEWPTYPQVYVDGELIGGYDICSQLKESGELKAILKH | soluble |
| MLKAMEHPAYSQLRPVTPSAGVVLCPNPGYSSLEGTNSWVVRAEGDRCSIVIDPGPADEGHLNVLHGKAETVGLVLLTHRHHDHADGAERFRQLTGAAIRAQQAPYCHGGDVLRDGEIIAIDGVTPQLEVVFTPGHTSDSVCFFVWSGVPHESNLEGIITGDTIAGRHTTMISETDGDLGQYLNTLALLEKRGKGIALLPGHGPDGDDVASFAHWYIERRMQRLEQIKEAIAQRGADVPIKELIDAVYDDVDPVLRGAAEQSTRVALRYLAQQQ | not soluble |
| MNGKQRMVEQSKQWLSEALIELMKTKDYQDISITEIAQKAELSRKTFYHSFKNKEAVINYLCDQLFDQYFQKLVKQEPQIGEAMLNTTFDIFLNFWWQQRSIIRLLIQQGLFDHMNEIWQKKAVPRYNQFAAPWHVKGTPKQVAYVMAFQLGGFTNILRLWLGQDSPEAPEKIKDLMLLAARQLADSLNPQKN | not soluble |
| MKFIIKLFPEITIKSQSVRLRFIKILTGNIRNVLKHYDETLAVVRHWDNIEVRAKDENQRLTIRDALTRIPGIHHILEVEDVPFTDMHDIFEKALVQYRDQLDGKTFCVRVKRRGKHDFSSIDVERYVGGGLNQHIESARVKLTNPDVTVHLEVEDDRLLLIKGRYEGIGGFPIGTQEDVLSLISGGFDSGVSSYMLMRRGCRVHYCFFNLGGAAHEIGVRQVAHYLWNRFGSSHRVRFVAINFEPVVGEILEKIDDGQMGVILKRMMVRAASKVAERYGVQALVTGEALGQVSSQTLTNLRLIDNVSDTLILRPLISYDKEHIINLARQIGTEDFARTMPEYCGVISKSPTVKAVKSKIEAEEEKFDFSILDKVVEEANNVDIREIAQQTGQEVVEVETVNDFGPNDVILDIRSVDEQEDKPLKVEGIDVVSLPFYKLSTKFGDLDQNRTWLLWCERGVMSRLQALYLREQGFKNVKVYRP | not soluble |
| MDQLFYNGPPDYVEIEDRAITTEPGASIQAAPGAIWMEALPAIEGIPAGLEYLAYLDTVMVHQVKEVLEILTGWESKNKYAIRNKNGQQCYYAFEESNAWERQCCGSQRGFTMHIVDNFNKNVLIVKRELRCCADSFCGCLLGLQNICTIESLSTGLLGTVLQGYGCTNSFYNILDKDGNLIFLVDGQGCCTSCCCEDKDFTIKTPDSSVPIGSITKKWGGLLREAFTDADTFAVTFPIDLDVKLKAILLGATFLIDFVEFENNN | not soluble |
| MVSQIGLLLPLSGDGQILGTTIQSGFNDAKGNSTIPVQVFDTSMNSVQDIIAQAKQAGIKTLVGPLLKQNLDVILADPAQIQGMDVLALNATPNSRAIPQLCYYGLSPEDEAESAANKMWNDGVRNPLVAMPQNDLGQRVGNAFNVRWQQLAGTDANIRYYNLPADVTYFVQENNSNTTALYAVASPTELAEMKGYLTNIVPNLAIYASSRASASATNTNTDFIAQMNGVQFSDIPFFKDTNSPQYQKLAKSTGGEYQLMRLYAMGADAWLLINQFNELRQVPGYRLSGLTGILSADTNCNVERDMTWYQYQDGAIVPVVDHHHHHH | soluble |
| MERYGYCIFCDDIRTEAGGKLSFIGCYNSAMFVTNEFPLSLPKLCVHFNVFSPADQPYKSLRVRCYLPGEDKPIAEESIEVPALQDQINLLTSLPKDQPMMPFIVVAASLIFSPCEIKSPGMIHVRAVINDSPTELHLGSLAVSSQATPQVALEHGPAAIN | not soluble |
| NIILQEDNAQLDEVVVVGYGTMKKKDLTGSVTAVKGDELAARRTTQLSTALQGALSGVMVSRDNGAPGSSASIQIRGVTTIGDSSPLVIIDGIPGDINSVNPEDVESMSVLKDAASASIYGSRAAAGVIVITTKRAKSGD | not soluble |
| MGSDKIHHHHHHMEVERLSLKEFCDMVAERKPTPGGGAVGSVVGAMACALAEMVANFTRKKKGYEDVEPEMERIVEAMEEARLKLFDLAKKDMEAFEKVMKAYKSSEGELQNALKEAASVPMDVIRVMKDLAHELEKLAEFGNKNLASDTLNAADLCHAVFQVEKVNVLINLKEISDETFRKNMLEELEEQEAQIEGCYQRVKKMLEGIVWSSK | soluble |
| MLTTLSCCCNMPVVKVNCWNNMKVQIKSITQWGGVLLLSFSSCYVNANKLIKPNILFIAVDDLKPLIRDYGTAKVQTPNIDKLASQSTVFTRAYSQYPVCGPSRMSILTGLRPESNGIMNLKDKIRDVNPSVITLPQFFKNNGYETAATGKIFDPRNTTSRSEEEVLSWSIPYQRPKHGLKGKTRLAVESIDEPDEKFVDGGILKRGKKLLKQMANKNKPFFLAVGFKKPHLPFVAPKKYYDLYSRESFDLASYQSAPEDADTTYLFHKNQELRGYKPTPIKGGEIKPYPKGKLSSAHQKELLHGYFASVSFIDSLVGELLEELEKTGQAENTVIVFWGDHGFHLGDHGLWGKHTTMEQANHVPLIIKIPGSKANRYAKPVELLDVFPSLTEAAGLSIPNNLQGTSLVSLVTGKLKSIDKVAISQYKRKGAYGYSMRTEQYRYTQWVTPSGKVVYRDLYDLINDPLETKNIINTPEGKLLEVELNKQLHTNSAGLKRLKLEHHHHHH | not soluble |
| MANHVSLILPPLSLYIHIPWCVQKCPYCDFNSHTQKGTIPEAEYIQHLLADLSQDLVTYKTAIANRKIHSIFIGGGTPSLFSAEAIAYLLAEIKQRIAFAPKIEITLEANPGTAEAERFICYTEAGINRISMGIQSFEEEKLRKLGRIHDAHEAKQAVYFAKNALISPSRTVGLHSFNLDLMHGLPNQTLEQALADLNTAISLNPPHFSWYQLTIEPNTMFYYRQPTLPDDDELWAIFEQGHQLLTMAGYQQYETSAYAKQGFQCQHNLNYWRFGDYLAIGCGAHGKISYPSGEIYRFSKTKHPKGYMRGDYRDSQQSIQLDDRPFEFFMNRFRLLEPTPKQEFECYTGLDCERVRPTIDWALNKHYISETSTTWQVTQKGKLFLNELLAGFLTLEHHHHHH | not soluble |
| GEQPSIQLTFADQNNSEMSVVHLNQLLKTNHISADKIIEKDGKTTIVFDGEDAQSKARALLNKELNKDDSITFSYVSVAPEWLNEMGFSPIKLGLDLRGGVQFLLNVDVNKAFEEQRDALIDEINASRDQRVRGVQVRAESGNRITVNSDSEQALSEVNKFLRQNYPGWISKSSSRGFVLEPSEQNIQEFQSSTLQQNLKIMRGRIEELGITEALVQRQGKESIRIELPGVQDPAQAKNVIGATASLAFYEVKDASQAHSSQDLVLQDNDGRTVILAKRPVLTGEHIVNARAGVDKMGMSEVNISLDHAGGKKMSDFSATHIGKPMATVYREYKTNDRGVTERSERVISVATIQSQLGSQFRITGAGSMDDAQQLALLLRAGSLTAPVTIVEERTIGASLGAENIEN | not soluble |
| SPGFSVGVIGDMFLLPNLNLRLLPTLHFGDKQFVFSDGEKPVASFSVRSNYLEFPLLLKYGSRRLNNMRPYLIGGPYWTMELGRKKGLEIYTKANDYGVQIGLGCDFYLPFFKLCPELRFSFGFPDVITHERPDLLDDYKLIYTQSISRARTRMIMLTFNFE | not soluble |
| MTTKKADYIWFNGEMVRWEDAKVHVMSHALHYGTSVFEGIRCYDSHKGPVVFRHREHMQRLHDSAKIYRFPVSQSIDELMEACRDVIRKNNLTSAYIRPLIFVGDVGMGVNPPAGYSTDVIIAAFPWGAYLGAEALEQGIDAMVSSWNRAAPNTIPTAAKAGGNYLSSLLVGSEARRHGYQEGIALDVNGYISEGAGENLFEVKDGVLFTPPFTSSALPGITRDAIIKLAKELGIEVREQVLSRESLYLADEVFMSGTAAEITPVRSVDGIQVGEGRCGPVTKRIQQAFFGLFTGETEDKWGWLDQVNQ | soluble |
| SQLPPGKPEIFKCRSPNKETFTCWWRPGTDGGLPTNYSLTYHREGETLMHECPDYITGGPNSCHFGKQYTSMWRTYIMMVNATNQMGSSFSDELYVDVTYIVQPDPPLELAVEVKQPEDRKPYLWIKWSPPTLIDLKTGWFTLLYEIRLKPEKAAEWEIHFAGQQTEFKILSLHPGQKYLVQVRCKPDHGYWSAWSPATFIQIPSDFTMND | soluble |
| RIETDERDSTNRASFKCPVCSSTFTDLEANQLFDPMTGTFRCTFCHTEVEEDESAMPKKDAR | soluble |
| MAFIESWAKRTWLVPPQMQLYVDYKIKVTEILTNYTSIEEIHSYSIDESFLDITESLNFFYPDIRNRYEQMNLITLDLQREILDKLGLYVTVGMGDNPLLAKLAMDNYAKHNQNMRALIRYLEHHHHHH | not soluble |
